Positions count from the first letter of the chain named. Read-outs that look alike come from different tables or passages of the source.
Assays:
[1] = target: T1, GAF (GAGA factor);Hsf;Ttk69 (Drosophila melanogaster?;Drosophila …, UniProt Q08605;P22813;P17789 1-582;1-691;1-643, ||); test: competition
[2] = target: GAF (GAGA factor);Ttk69 (Drosophila melanogaster?;Drosophila …, UniProt Q08605;P17789 1-582;1-643, |); test: EMSA
[3] = target: T2, GAF (GAGA factor) (UniProt Q08605 1-582); test: EMSA
T2 sequence: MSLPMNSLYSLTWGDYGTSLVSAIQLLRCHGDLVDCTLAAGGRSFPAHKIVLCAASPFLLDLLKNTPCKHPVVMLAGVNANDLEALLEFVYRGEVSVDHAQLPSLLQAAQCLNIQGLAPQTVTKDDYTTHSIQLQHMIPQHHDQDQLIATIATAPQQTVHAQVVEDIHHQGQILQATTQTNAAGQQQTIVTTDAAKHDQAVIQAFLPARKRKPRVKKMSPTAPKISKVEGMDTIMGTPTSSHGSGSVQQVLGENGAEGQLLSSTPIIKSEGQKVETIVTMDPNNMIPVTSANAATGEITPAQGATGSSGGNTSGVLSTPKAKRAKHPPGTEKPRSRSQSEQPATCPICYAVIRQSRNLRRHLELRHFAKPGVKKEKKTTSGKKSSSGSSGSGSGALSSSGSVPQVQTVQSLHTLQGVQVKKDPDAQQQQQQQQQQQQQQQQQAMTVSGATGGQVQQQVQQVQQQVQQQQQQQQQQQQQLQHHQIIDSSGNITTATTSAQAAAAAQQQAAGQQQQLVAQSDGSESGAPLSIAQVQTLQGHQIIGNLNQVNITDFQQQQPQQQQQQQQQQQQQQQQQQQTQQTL

[4] = target: Ttk69 (UniProt P17789 1-643); test: EMSA
[5] = target: T3, GAF (GAGA factor);Hsf-S378D (Drosophila melanogaster?;Drosophila …, UniProt Q08605;P22813 1-582;1-691, |S378D); test: EMSA
T3 sequence 1: T2 sequence
T3 sequence 2: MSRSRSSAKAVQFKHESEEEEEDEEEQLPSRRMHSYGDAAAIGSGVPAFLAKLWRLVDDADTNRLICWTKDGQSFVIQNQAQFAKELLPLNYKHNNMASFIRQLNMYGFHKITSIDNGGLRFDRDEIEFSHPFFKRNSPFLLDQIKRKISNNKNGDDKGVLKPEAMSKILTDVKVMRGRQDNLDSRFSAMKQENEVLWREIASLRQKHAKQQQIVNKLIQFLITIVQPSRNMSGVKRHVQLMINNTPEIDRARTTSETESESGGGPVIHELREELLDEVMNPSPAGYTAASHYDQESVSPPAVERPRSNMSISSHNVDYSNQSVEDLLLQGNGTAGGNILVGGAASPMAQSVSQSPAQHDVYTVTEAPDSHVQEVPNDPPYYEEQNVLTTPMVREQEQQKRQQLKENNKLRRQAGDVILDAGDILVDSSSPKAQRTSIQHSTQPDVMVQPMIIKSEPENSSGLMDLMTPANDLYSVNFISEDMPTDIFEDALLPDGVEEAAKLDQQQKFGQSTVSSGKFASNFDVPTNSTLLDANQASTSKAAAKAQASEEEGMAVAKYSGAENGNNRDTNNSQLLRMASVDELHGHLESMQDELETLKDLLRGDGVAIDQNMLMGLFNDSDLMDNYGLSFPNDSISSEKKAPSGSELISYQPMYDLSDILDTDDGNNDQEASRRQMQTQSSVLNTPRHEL

[6] = target: T4, Hsf (UniProt P22813 1-691); test: EMSA
T4 sequence: T3 sequence 2 with D378S

[7] = target: Hsf;Ttk69 (Drosophila melanogaster?;Drosophila …, UniProt P22813;P17789 1-691;1-643, |); test: EMSA
[8] = target: T1, GAF (GAGA factor);Hsf;Ttk69; test: competition; remark: listed apart in the source

B1: HSE competitor (dsDNA)
DNA 1: CGCCTCGAATGTTCGCGAAAAGAGCGCCGG
DNA 2: CCGGCGCTCTTTTCGCGAACATTCGAGGCG
- binding result [1]: binds

B2: tor-RE 25-bp probe (dsDNA)
DNA 1: CGTTCCTTGCTCAATGAATTTTTCG
DNA 2: CGAAAAATTCATTGAGCAAGGAACG
- binding signal [2]: 5 fold vs GAF alone
- binding result [3]: binds
- binding result [4]: no binding
- binding result [5]: binds
- binding result [6]: no binding
- binding result [7]: no binding

B3: TBS competitor (dsDNA)
DNA 1: TCCTCATGGTCCTGCCGAGCAG
DNA 2: CTGCTCGGCAGGACCATGAGGA
- binding result [8]: no binding
